The text below walks through data of PMC7193609, “DNA replication machinery prevents Rad52-dependent single-strand annealing that leads to gross chromosomal rearrangements at centromeres”.

The series deals with T1, Rad52-6His-3Flag (wild type) (Schizosaccharomyces pombe (fission …, UniProt P36592 1-469)).
T1 sequence: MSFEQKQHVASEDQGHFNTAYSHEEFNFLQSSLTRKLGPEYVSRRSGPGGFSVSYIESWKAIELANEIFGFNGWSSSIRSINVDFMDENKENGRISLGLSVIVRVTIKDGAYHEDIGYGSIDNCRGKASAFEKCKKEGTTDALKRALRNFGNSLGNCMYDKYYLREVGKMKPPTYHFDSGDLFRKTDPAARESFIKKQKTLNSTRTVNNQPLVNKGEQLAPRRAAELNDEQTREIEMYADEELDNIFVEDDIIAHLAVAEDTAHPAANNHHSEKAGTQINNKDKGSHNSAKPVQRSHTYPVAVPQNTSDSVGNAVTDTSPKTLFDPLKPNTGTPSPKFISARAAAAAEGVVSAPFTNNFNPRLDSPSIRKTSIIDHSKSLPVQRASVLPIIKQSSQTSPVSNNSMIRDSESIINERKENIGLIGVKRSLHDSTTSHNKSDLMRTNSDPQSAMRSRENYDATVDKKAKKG
In words: EMSA; 0-200 nM Rad52, 2 nM DNA; complexes retained in well; EMSA: 32 mM Tris-HCl pH 7.8, 40 mM KCl, 0.8 mM DTT, 0.08 mg/mL BSA, 30 °C, 10 min; 10% native PAGE in 1x TAE. The following applies: protein: recombinant; tags: C-terminal 6His-3Flag; label: 5'-32P; single strand, 48 nt.

In the case of GAAGCATTTATCAGGGTTATTGTCTCATGAGCGGATACATATTTGAAT (ssDNA) [Oligo211], the binding result is “binds”.
